From publication PMC4385502 (Molecular cell, 2015)

Target: the molecule itself
Assay: SEC

B1: RIG-I-TD (RIG-I triple deamidation mutant) (natural protein)
chain: MTTEQRRSLEAFQDYIRKTLDPTYILSYMAPWFREEEVQYIQAEKNNKGPMEAATLFLKFLLELQEEGWFRGFLDALDHAGYSGLYEAIESWDFKKIEKLEEYRLLLKRLQPEFKTRIIPTDIISDLSECLINQECEEILQICSTKGMMAGAEKLVECLLRSDKENWPKTLKLALEKERNKFSELWIVEKGIKDVETEDLEDKMETSDIQIFYQEDPECQNLSENSCPPSEVSDTNLYSPFKPRDYQLELALPAMKGKNTIICAPTGCGKTFVSLLICEHHLKKFPQGQKGKVVFFANQIPVYEQQKSVFSKYFERHGYRVTGISGATAENVPVEQIVENNDIIILTPQILVNNLKKGTIPSLSIFTLMIFDECHNTSKQHPYNMIMFNYLDQKLGGSSGPLPQVIGLTASVGVGDAKNTDEALDYICKLCASLDASVIATVKHDLEELEQVVYKPQKFFRKVESRISDKFKYIIAQLMRDTESLAKRICKDLENLSQIQNREFGTQKYEQWIVTVQKACMVFQMPDKDEESRICKALFLYTSHLRKYNDALIISEHARMKDALDYLKDFFSNVRAAGFDEIEQDLTQRFEEKLQELESVSRDPSNENPKLEDLCFILQEEYHLNPETITILFVKTRALVDALKNWIEGNPKLSFLKPGILTGRGKTNQNTGMTLPAQKCILDAFKASGDHNILIATSVADEGIDIAQCNLVILYEYVGNVIKMIQTRGRGRARGSKCFLLTSNAGVIEKEQINMYKEKMMNDSILRLQTWDEAVFREKILHIQTHEKFIRDSQEKPKPVPDKENKKLLCRKCKALACYTADVRVIEECHYTVLGDAFKECFVSRPHPKPKQFSSFEKRAKIFCARQNCSHDWGIHVKYKTFEIPVIKIESFVVEDIATGVQTLYSKWKDFHFEKIPFDPAEMSK
B1: binds.
